Test results: patent US6958322

Assays:
[1] = molecular target: purified plasma factor IX (Stago) (UniProt P00740)
[2] = system: recombinant factor X wild type (rFX)
[3] = molecular target: corresponding murine coagulation proteins; test: cell-based or functional assay
[4] = molecular target: corresponding murine coagulation proteins

Sequence of UniProt P00740 (P00740 whole entry, looked up): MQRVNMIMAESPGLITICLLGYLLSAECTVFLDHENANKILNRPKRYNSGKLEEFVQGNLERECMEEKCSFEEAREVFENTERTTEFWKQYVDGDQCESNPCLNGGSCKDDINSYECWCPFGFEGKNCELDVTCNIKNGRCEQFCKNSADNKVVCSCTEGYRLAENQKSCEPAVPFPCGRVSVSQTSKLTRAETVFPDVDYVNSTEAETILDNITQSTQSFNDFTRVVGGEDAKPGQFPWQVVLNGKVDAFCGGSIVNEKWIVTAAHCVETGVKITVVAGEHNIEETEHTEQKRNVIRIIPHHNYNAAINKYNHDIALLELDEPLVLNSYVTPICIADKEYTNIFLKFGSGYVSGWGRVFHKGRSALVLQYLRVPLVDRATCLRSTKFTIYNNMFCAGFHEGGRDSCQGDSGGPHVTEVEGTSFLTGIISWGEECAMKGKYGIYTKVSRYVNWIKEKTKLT

In the case of purified factor XIa, the “cleavage / in vitro activation, Western blot” value (rFX/FXIa (Q-R/I) analog) is reported as “after an incubation time of 1 h at 37 °C in the presence of CaCl2, the reaction batch of FXIa, with rFX/FXIa (Q-R/I) as a substrate, shows protein bands of approximately 36 kD and 32 kD which resemble the activated alpha and beta forms (aHCa and bHCa) of the heavy chain of FX”, the “cleavage / conversion into activated forms, Western blot” value [1] is reported as “The conversion of FIX into the activated forms (FIXa and FIXb)” and the “cleavage, Western blot (negative control)” value [2] is reported as “compared to rFX in the absence of FXIa, no change for rFX is visible in the protein pattern after incubation with FXIa”.

B1: rFX/FXIa (Q-R/I) analog, P00742 41-179; P00742 183-488 (enzyme)
light: ANSFLEEMKKGHLERECMEETCSYEEAREVFEDSDKTNEFWNKYKDGDQCETSPCQNQGKCKDGLGEYTCTCLEGFEGKNCELFTRKLCSLDNGDCDQFCHEEQNSVVCSCARGYTLADNGKACIPTGPYPCGKQTLER
heavy: SVAQATSSSGEAPDSITWKPYDAADLDPTENPFDLLDFNQTQPEQSFNDFTRIVGGQECKDGECPWQALLINEENEGFCGGTILSEFYILTAAHCLYQAKRFKVRVGDRNTEQEEGGEAVHEVEVVIKHNRFTKETYDFDIAVLRLKTPITFRMNVAPACLPERDWAESTLMTQKTGIVSGFGRTHEKGRQSTRLKMLEVPYVDRNSCKLSSSFIITQNMFCAGYDTKQEDACQGDSGGPHVTRFKDTYFVTGIVSWGESCARKGKYGIYTKVTAFLKWIDRSMKTRGLPKAKSHAPEVITSSPLK
B1 was tested, and the Coagulation Time in sec. (aPTT, FIX-def. mouse plasma + rfX/fXIa(Q-R/I)) [3] was 48.6 s and the Coagulation Time in sec. (aPTT, FVIII-def. mouse plasma + rfX/fXIa(Q-R/I)) [3] was 52.5 s.

B2: rFX/FXIa (Q-R/I) analog (protein)
chain 1: B1 light
chain 2: B1 heavy
B2 showed a % Activity in mouse plasma (aPTT, FIX-def. plasma + rfX/fXIa(Q-R/I)) [4] of 166% and a % Activity in mouse plasma (aPTT, FVIII-def. plasma + rfX/fXIa(Q-R/I)) [4] of 97%.
